Tests used:
[1] = target: TerL^P74-26, large terminase of bacteriophage P74-26 (bacteriophage P74-26)
[2] = target: TerS^P74-26, small terminase of the thermophilic bacteriophage P74-26 (gp83) (bacteriophage P74-26); experiment: SEC-MALS

Substance: TerS^P74-26, small terminase of the thermophilic bacteriophage P74-26 (gp83) (natural protein)
- ATPase activity of TerL^P74-26 upon mixing with gp83, no DNA present [1]: 4.4 fold
- stoichiometry N [2]: 9

Reference: doi:10.1101/851345
